The record followed here is US20060147453A1.

This assay addresses decorin. As to the kind of experiment: cell-based or functional assay.

As to “Full length human WISP-1-Fc fusion protein (baculovirus, Sf9 insect cells) (from UniProt O95388 23-367)”, the HAS2 expression in NRK cells plated on the coated surface (real time RT-PCR) worked out at 3 fold.
